Values of other authors, collected in paper PMC7252266.

Target: UROD (Homo sapiens) (UniProt P06132)

For UROD (from UniProt P06132), the Kd is given as 100 nM.
